Measured values published in the supplement of paper PMC9732359.
± gives the uncertainty stated by the source.

Assay: protein stability index of a GFP-peptide fusion (yeast GPS) (PSI 1-4); higher = more stable; sorted into four equal gates, so the index is relative within each strain
Procedure, shortened: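 Peptides tiling yeast proteins in 17-residue segments were fused downstream of GFP, with Cherry expressed from the same plasmid. As a pooled library in yeast, mid-log cultures grown in leucine-free medium were sorted into four equal gates by GFP/Cherry fluorescence ratio. Gate plasmids were PCR-amplified and Illumina-sequenced, and barcodes linked reads to strains. Each peptide received a protein stability index equal to the sum of each gate's read frequency times its gate number.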

Sequence	protein stability index (doa10∆)	protein stability index (pdr5∆)	protein stability index (san1∆)	protein stability index (ubr1∆)
LVSEKIINSTALMKEKD [RPC82]	3.19 ± 0.17	3.11 ± 0.081	3.11 ± 0.084	3.27 ± 0.092
SFQKIPLSRINENENFG [YML103C/NUP188]	2.88 ± 0.15	3.12 ± 0.097	2.97 ± 0.079	3.24 ± 0.1
ISVNSSSFSLTFFPRCI [POP1]	2.55 ± 0.03	2.66 ± 0.035	2.44 ± 0.039	2.44 ± 0.031
MNDVINTEEVNRLEKEQ [LIN1]	2.99 ± 0.1	3.31 ± 0.17	3.27 ± 0.074	3.61 ± 0.085
GQSSSIQSSLMTNLTYF [YCS4]	2.86 ± 0.095	2.74 ± 0.071	2.56 ± 0.086	2.95 ± 0.065
EFENKFQNSYKPALKVS [YMR129W/POM152]	–	3.11 ± 0.22	3.04 ± 0.2	–
MYCRPAPSDFSENQRQI [GRR1]	3.13 ± 0.085	2.62 ± 0.084	3.02 ± 0.078	2.66 ± 0.082
VHDLNKYKSNTNNMEKI [SMC2]	3.46 ± 0.17	3.58 ± 0.14	3.02 ± 0.15	3.47 ± 0.24
SNMQKSLLPYYHLTKAV [RPN3]	2.02 ± 0.038	1.87 ± 0.044	1.85 ± 0.062	1.92 ± 0.033
AQAWINLGEYYAQIGDK [RPN7]	2.41 ± 0.11	2.77 ± 0.1	2.8 ± 0.11	2.76 ± 0.12
ANYIKERTKNAQFIVIS [SMC4]	2.76 ± 0.11	1.5 ± 0.067	1.49 ± 0.11	2.27 ± 0.071
MVCETDVPSEDDPTQLV [RPO21]	3.03 ± 0.069	3.24 ± 0.12	3.37 ± 0.1	2.56 ± 0.11
NLIIFLYKFNGWSLVGR [YML103C/NUP188]	1.59 ± 0.069	2.22 ± 0.11	2.52 ± 0.2	2.68 ± 0.11
TDQSTEEEKSVDASPND [CSL4]	2.88 ± 0.2	2.8 ± 0.21	–	3.06 ± 0.17
NYTGWKAISVGANTSAA [PRE9]	1.23 ± 0.079	1.36 ± 0.076	1.24 ± 0.2	1.17 ± 0.062
AMFEICLKRGWGHPTRM [BRR2]	–	–	2.21 ± 0.14	2.96 ± 0.18
VSFNGFKLPKKFPPPTP [BRR2]	2.57 ± 0.07	2.9 ± 0.067	2.8 ± 0.06	2.93 ± 0.052
PDGLGEVGMKVQSGQIY [RET1]	3.27 ± 0.14	3.15 ± 0.12	2.91 ± 0.094	3.21 ± 0.25
EDCDLVIMALMLMSKIG [POP5]	1.46 ± 0.038	1.89 ± 0.053	1.81 ± 0.069	2.32 ± 0.037
VKQVLLSVEIGVLTDIS [NUT1]	1.16 ± 0.063	1.47 ± 0.056	1.37 ± 0.18	1.64 ± 0.066
GQKLLAIKYGYEDSGST [SRB4]	2.83 ± 0.11	2.91 ± 0.098	2.53 ± 0.1	3.25 ± 0.11

Sequence	protein stability index (doa10∆)	protein stability index (pdr5∆)	protein stability index (san1∆)	protein stability index (ubr1∆)
MPSRFTKTRKHRGHVSA [RPL28]	1.92 ± 0.06	2.19 ± 0.062	2.09 ± 0.12	2.39 ± 0.062
LALSSNISRDFQSYIVS [COR1]	2.03 ± 0.073	2.71 ± 0.084	2.09 ± 0.1	1.88 ± 0.047
NVNNRFDNFLTEEELQA [BRN1]	3.07 ± 0.078	2.63 ± 0.079	3 ± 0.056	2.63 ± 0.054
RYNGGNDNIGANRSRFN [SMB1]	3.24 ± 0.099	3.39 ± 0.078	3.14 ± 0.048	3.35 ± 0.08
KITSPIRSVALNDSNVK [RRP42]	2.6 ± 0.12	2.42 ± 0.11	2.59 ± 0.1	2.94 ± 0.078
SPHYNSQKQTLIKKPLT [SSN3]	2.52 ± 0.064	2.87 ± 0.056	2.46 ± 0.058	2.65 ± 0.036
AKINEVYNNSKDEYLAQ [NSL1]	2.83 ± 0.047	3.06 ± 0.043	2.77 ± 0.048	2.75 ± 0.037
HTPMVNFESISARSSVH [SRB8]	2.08 ± 0.043	1.97 ± 0.032	1.79 ± 0.051	2.12 ± 0.025
NTNNNNNPANNTNNNNS [SWI1]	3.06 ± 0.033	3 ± 0.03	3.344 ± 0.026	3.435 ± 0.026
EVEEDDEDDDQPMISPD [SWI3]	3.21 ± 0.099	3.45 ± 0.056	3.33 ± 0.046	3.15 ± 0.06
KFENDELAESTTTKIID [LRP1]	2.04 ± 0.13	2.47 ± 0.12	2.23 ± 0.086	2.27 ± 0.053
VENSVLIEKVDDTAANN [YIL149C/MLP2]	2.83 ± 0.15	2.82 ± 0.15	2.68 ± 0.14	2.79 ± 0.088
ISSRTFGQRAVLKFAAH [RPS0A]	2.35 ± 0.095	2.57 ± 0.098	2.69 ± 0.089	2.49 ± 0.11
DAIWSLVFQLAKNFSAQ [SRB8]	2.08 ± 0.049	2.56 ± 0.053	2.4 ± 0.054	2.61 ± 0.041
INTHIETLAYNSLKETL [SNF2]	2.48 ± 0.054	2.76 ± 0.063	2.5 ± 0.047	2.61 ± 0.042
EIHPITFPPEVLARISP [RRP43]	2.05 ± 0.041	2.57 ± 0.054	2.4 ± 0.049	1.94 ± 0.041
LLKSNDPLLSLYNFLHK [RGR1]	2.31 ± 0.056	2.23 ± 0.053	2.54 ± 0.048	2.55 ± 0.041
EKDLEHWLQLAKGVYRP [POP1]	2.64 ± 0.072	3 ± 0.067	3.15 ± 0.041	3.1 ± 0.064
KALAIFVPVPSLAGFHK [RPS7A]	2.29 ± 0.051	1.93 ± 0.04	1.77 ± 0.069	1.85 ± 0.039
RANLRKYREGQVLFQGL [POP1]	2.83 ± 0.095	2.31 ± 0.071	2.02 ± 0.088	2.96 ± 0.063
